Biological target: His6-BacA_(F134R), purified (Asticcacaulis biprosthecum)
Test: SEC; 500 μl of purified protein from the polymerization assay (Buffer C) on Superdex 200 Increase 10/300 GL, calibrated with standard proteins

stoichiometry N: 2
Substance: His6-BacA_(F134R), purified (natural protein)
